How the values were obtained:
ErbB3 (HER3) = biological target: T1, ErbB3 (HER3) (human, UniProt P21860 20-1342); experiment: not described
T1 construct: whole, on cells

ErbB4 (HER4) = biological target: T2, ErbB4 (HER4) (UniProt Q15303 26-651, limits assumed); experiment: not described
T2 sequence (looked up): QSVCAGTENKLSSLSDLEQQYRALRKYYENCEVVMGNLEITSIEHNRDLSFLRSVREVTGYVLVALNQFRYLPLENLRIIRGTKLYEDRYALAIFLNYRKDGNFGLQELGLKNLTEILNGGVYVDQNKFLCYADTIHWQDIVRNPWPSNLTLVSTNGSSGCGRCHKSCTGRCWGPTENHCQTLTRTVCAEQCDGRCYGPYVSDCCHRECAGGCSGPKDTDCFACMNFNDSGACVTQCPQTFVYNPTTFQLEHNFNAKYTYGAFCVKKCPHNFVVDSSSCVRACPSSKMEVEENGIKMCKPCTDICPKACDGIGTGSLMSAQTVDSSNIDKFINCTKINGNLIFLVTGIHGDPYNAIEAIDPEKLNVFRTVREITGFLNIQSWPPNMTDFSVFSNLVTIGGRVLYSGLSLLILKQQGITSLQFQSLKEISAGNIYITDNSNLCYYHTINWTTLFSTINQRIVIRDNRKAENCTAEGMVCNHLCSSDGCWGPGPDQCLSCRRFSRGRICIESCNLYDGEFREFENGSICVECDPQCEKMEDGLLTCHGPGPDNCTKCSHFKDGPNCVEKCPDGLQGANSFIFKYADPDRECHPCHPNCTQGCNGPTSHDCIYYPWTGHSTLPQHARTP

T1 sequence (P21860 20-1342): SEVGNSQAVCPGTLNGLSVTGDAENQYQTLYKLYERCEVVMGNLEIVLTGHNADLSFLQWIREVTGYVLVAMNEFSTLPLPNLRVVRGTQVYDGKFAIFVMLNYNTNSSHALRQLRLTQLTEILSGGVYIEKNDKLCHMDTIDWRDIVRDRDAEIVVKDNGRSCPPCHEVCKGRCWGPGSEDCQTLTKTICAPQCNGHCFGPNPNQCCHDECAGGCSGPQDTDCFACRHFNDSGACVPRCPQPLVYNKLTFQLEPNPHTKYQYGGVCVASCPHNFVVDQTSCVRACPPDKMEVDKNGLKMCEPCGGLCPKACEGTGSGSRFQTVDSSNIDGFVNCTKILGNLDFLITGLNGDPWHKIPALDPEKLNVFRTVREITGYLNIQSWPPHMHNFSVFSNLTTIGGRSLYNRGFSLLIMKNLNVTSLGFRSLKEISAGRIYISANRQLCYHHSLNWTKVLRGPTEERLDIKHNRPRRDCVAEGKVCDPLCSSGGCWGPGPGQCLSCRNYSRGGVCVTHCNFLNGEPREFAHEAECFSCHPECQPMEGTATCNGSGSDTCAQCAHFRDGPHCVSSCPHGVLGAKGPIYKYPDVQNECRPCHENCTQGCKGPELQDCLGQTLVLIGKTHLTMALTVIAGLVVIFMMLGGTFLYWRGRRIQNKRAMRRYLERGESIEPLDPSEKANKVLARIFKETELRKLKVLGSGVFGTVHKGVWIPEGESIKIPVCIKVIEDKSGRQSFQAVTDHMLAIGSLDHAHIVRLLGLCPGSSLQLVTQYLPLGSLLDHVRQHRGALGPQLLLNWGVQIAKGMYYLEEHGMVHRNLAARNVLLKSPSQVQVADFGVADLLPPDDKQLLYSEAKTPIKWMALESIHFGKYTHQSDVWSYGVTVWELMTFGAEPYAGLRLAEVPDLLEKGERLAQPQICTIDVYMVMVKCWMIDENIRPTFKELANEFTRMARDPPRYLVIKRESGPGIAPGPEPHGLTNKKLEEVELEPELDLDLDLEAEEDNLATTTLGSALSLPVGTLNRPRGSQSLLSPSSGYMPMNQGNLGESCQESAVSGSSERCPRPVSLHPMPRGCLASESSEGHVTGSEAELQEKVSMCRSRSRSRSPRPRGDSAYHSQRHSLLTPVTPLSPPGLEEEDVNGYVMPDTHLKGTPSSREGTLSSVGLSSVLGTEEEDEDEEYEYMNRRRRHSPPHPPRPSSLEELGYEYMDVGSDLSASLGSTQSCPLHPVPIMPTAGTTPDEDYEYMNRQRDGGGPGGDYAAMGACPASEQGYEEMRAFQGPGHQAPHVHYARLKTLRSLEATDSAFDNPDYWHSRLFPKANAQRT

B1: murine monoclonal antibody 2C4 (antibody, V domains shown)
VH: EVQLQQSGPELVKPGTSVKISCKASGFTFTDYTMDWVKQSHGKSLEWIGDVNPNSGGSIYNQRFKGKASLTVDRSSRIVYMELRSLTFEDTAVYYCARNLGPSFYFDYWGQGTTLTVSS
VL: DTVMTQSHKIMSTSVGDRVSITCKASQDVSIGVAWYQQRPGQSPKLLIYSASYRYTGVPDRFTGSGSGTDFTFTISSVQAEDLAVYYCQQYYIYPYTFGGGTKLEIK
notes: also called mu 2C4; intact murine 2C4
B1: no binding (ErbB3 (HER3)); no binding (ErbB4 (HER4)).

— patent US7501122 (Genentech, dated 2009)
